Results as given in the supplement of paper PMC12042874.
± gives the uncertainty stated by the source.

assay: amyloid nucleation score (Sup35N fusion, yeast selection) (log enrichment); library NNK2; higher = more nucleation; inactive = no reads after selection
Summary of the method: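 Growth for 7 days at 30°C on medium lacking adenine and uracil followed a 24-hour induction with 100 μM copper sulfate of psi-negative yeast expressing peptides of 20 random codons fused to Sup35N. Input and output plasmid inserts were sequenced with Illumina, and sequences with under 100 input reads were excluded. Nucleation score is the DiMSum log enrichment of output over input reads, centred on the mode score of non-aggregating sequences.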

Row | Substance | amyloid nucleation score
1 | NCRFFIADVSLYPTWFIFYF | 2.82 ± 0.12
2 | NCSSTIDFLFNLIHILKNF | inactive
3 | NCVHRDNWE | inactive
4 | NCYNMVYNCVPSEKAVKTCR | 0.264 ± 0.32
5 | NDRILPYSNLWHWERLV | -0.567 ± 1.1
6 | NDSSLCSSVRPIRMREEFDK | -0.099 ± 0.25
7 | NDSTLGRLSYNLRDLRSQKM | -0.502 ± 0.79
8 | NECRVDFE | -0.668 ± 0.56
9 | NEHYGRTMTN | -0.064 ± 1.1
10 | NENTLNMMKVWVTGGLSTRK | 2.89 ± 0.17
11 | NEVSGNGLFSIFSQSGKSYY | inactive
12 | NFACVFHGVDFYRTDSSCRK | 5.17 ± 0.072
13 | NFADWTCFDIQVR | -0.186 ± 0.32
14 | NFASFCPFFS | 0.053 ± 0.39
15 | NFCLARRYTYIKSPFCVSGK | 0 ± 0.56
16 | NFGGIKKLYNTMRSYWLGTR | -1.22 ± 0.45
17 | NFGIKWIVFLKL | -0.861 ± 0.28
18 | NFGLEELTGKIGGRTC | 1.04 ± 0.23
19 | NFKECNLDCKSHLRNVWLRQ | inactive
20 | NFNGGCKFKGDYYRKA | 1.14 ± 0.26
21 | NFSDWIYVFSEVPMLVRCRW | 0.261 ± 0.42
22 | NFSNVFWKFISRWLTAF | inactive

Row | Substance | amyloid nucleation score
23 | NFSYRSFNRLVRGRD | inactive
24 | NFVLGKTSSVVCSHQSAALT | 0.505 ± 0.18
25 | NGDLIRDRECRANMRFIMRV | -1.21 ± 0.45
26 | NGFHCG | inactive
27 | NGNIKFFHRMRRTRHVACLY | 0.223 ± 0.39
28 | NGNTVVLGSLIFYKLVLVAS | 5.64 ± 0.033
29 | NGRRFLSYSVMLRDLRYRSC | 0.138 ± 0.76
30 | NGRTRCNPFLFGFKGRPGEC | -1.34 ± 1.1
31 | NGVLRDHWTMAQTCAGVECS | -0.403 ± 1.1
32 | NHGWLYGWVVVNYTFTTGVM | -1.63 ± 0.39
33 | NHSVTWLPD | 1.27 ± 0.41
34 | NICIN | inactive
35 | NICLGMCLYHGVSDAVDQSR | 7.971 ± 0.055
36 | NIFSWEAVEKARYAHSPLNN | -1.44 ± 1.1
37 | NIGSVKN | 0.098 ± 0.38
38 | NIKFHVFDLCDSPHGWLPDR | 0.224 ± 0.56
39 | NILLMYFSLK | 5.74 ± 0.049
40 | NILNFMDS | -0.603 ± 1.1
41 | NILRATTFCVDHLYSSFFCT | 6.74 ± 0.068
42 | NILWSNLGRMCRQLFAVFWS | -0.738 ± 0.62
43 | NIPAYTSMTFVLWTIL | -0.153 ± 0.37
44 | NIPLLLMFHSTIWFKMHIWE | 1.51 ± 0.11

Row | Substance | amyloid nucleation score
45 | NIQTWGSGHVSTSDG | 3.24 ± 0.089
46 | NIVQEHTTCTEVRGVSALAR | 0.436 ± 0.66
47 | NIWRRSSSV | inactive
48 | NKAHINW | 0.476 ± 0.6
49 | NKEECL | 0.021 ± 0.35
50 | NKLLHHFILGAEESLLEIMY | inactive
51 | NKMTF | 0.502 ± 0.44
52 | NKNRKQSLDKPS | -0.493 ± 1.1
53 | NKRSCNGCGSRAHQDSL | -0.176 ± 1.1
54 | NKSGDSQLLRVYYIVLVFMW | -1.08 ± 0.62
55 | NLDDYPG | 1.66 ± 0.25
56 | NLDEVFMFTSTHLVIPLESK | -1.6 ± 0.75
57 | NLHVGREPQGSEYVDPFSVV | 0.731 ± 0.25
58 | NLIFI | inactive
59 | NLLLLTVRKLNAVNMSTPPY | 2.05 ± 0.21
60 | NLLYKMTMWTKFGRLSSCCK | 0.001 ± 0.42
61 | NLRVSFGREDCL | -0.347 ± 0.55
62 | NLSILTICMFLPVDFGI | 6.525 ± 0.059
63 | NLTYWLVLLRFKKLTDGEHE | -0.259 ± 0.3
64 | NLVLRPR | inactive
65 | NLWSSGKWLMCI | -0.292 ± 0.29
66 | NMFNPFRFRISNYEVCSNMC | 6.257 ± 0.043

Row | Substance | amyloid nucleation score
67 | NMIYYGVL | -1.24 ± 0.45
68 | NMVHNDRSRKVKLSWCATFK | 7.609 ± 0.058
69 | NNDGTPDPNM | -0.237 ± 0.63
70 | NNEFYRRYVGNYSLVMVMGN | -0.088 ± 1.1
71 | NNFRWNVMVCYAFQGYSGVK | 2.64 ± 0.068
72 | NNKTKPVVFILSMYNYERFS | 2.12 ± 0.25
73 | NNNGV | 1.45 ± 0.13
74 | NNRSELVPKSANRMGFTSLA | -0.278 ± 0.29
75 | NPALVFIHA | inactive
76 | NPIGFFHDLGVWIWWSSMAT | -1.26 ± 1.1
77 | NPLAIVAS | -1.77 ± 0.78
78 | NPNELLLSSCFFHYLVKPWG | inactive
79 | NPRGWAVEMVDYHSTFLKPE | 5.64 ± 0.075
80 | NPTHLLPHTEIGVLDTCAF | 0.265 ± 1.1
81 | NPTWVRCYWHFWFTVNGFQY | -1.17 ± 1.1
82 | NPWVRFVVSCLYAVSQQCGL | 4.66 ± 0.07
83 | NPYIINLFCYKIVRLGAIFT | 4.14 ± 0.068
84 | NQDPRSRLLSNELYGCHFVL | -0.214 ± 0.28
85 | NQFVVMDQVLVMWGCFDLTR | 0.417 ± 0.46
86 | NQKSLFVARETSTMFPSPYV | -0.141 ± 0.38
